These results are taken from patent publication US20020082410, “Insulin promoter factor, and uses related thereto” (Curis, Inc., published 2002).

This data set has as its target Ipf1 (IPF1, Pdx1) (Mus musculus, UniProt P52946 SEQ:1-284). The experiment in a line: EMSA; same mobility as IPF1 from betaTC1 nuclear extract; competition with wild-type and mutant P1 sites showed same specificity as endogenous IPF1. The conditions noted are these: tags: none; rabbit reticulocyte lysate from full-length cDNA in pGEM3. The method, then:
RNA prepared from the IPF1 cDNA template was translated in vitro and the DNA binding specificity of the in vitro translation product was determined using an electrophoretic mobility shift assay (EMSA) and the insulin promoter PI site as a probe (Ohisson et al., (1991) Mol Endocrin 5:897-904; see also Materials and Methods below). The in vitro translation product bound to the P1 element and migrated to the same relative position in the gel as IPF1 from the βTC1 nuclear extract.

Sequence of Ipf1 (IPF1, Pdx1) (P52946 other isoform, or with tags, fused parts or gaps): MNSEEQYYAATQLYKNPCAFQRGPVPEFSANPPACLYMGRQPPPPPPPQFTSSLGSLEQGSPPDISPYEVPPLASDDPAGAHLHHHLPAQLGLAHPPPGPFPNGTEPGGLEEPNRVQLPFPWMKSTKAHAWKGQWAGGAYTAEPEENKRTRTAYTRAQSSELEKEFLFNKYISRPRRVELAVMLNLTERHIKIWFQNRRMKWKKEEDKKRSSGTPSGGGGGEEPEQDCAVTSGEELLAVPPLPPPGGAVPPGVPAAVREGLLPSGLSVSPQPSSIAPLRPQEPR

B1: P1 wild-type insulin promoter element (dsDNA)
DNA 1: GCCCTTAATGGGCCAAACGGCA
DNA 2: TGCCGTTTGGCCCATTAAGGGC
B1: the binding result is on record as “binds”.
